Data from PMC5748837, “Biochemical characterization of INTS3 and C9ORF80, two subunits of hNABP1/2 heterotrimeric complex in nucleic acid binding” (Biochemical Journal, 2017).

B1: Human nucleic acid-binding protein 2 (hNABP2) (natural protein, UniProt Q9BQ15 1-211, looked up)
chain: MTTETFVKDIKPGLKNLNLIFIVLETGRVTKTKDGHEVRTCKVADKTGSINISVWDDVGNLIQPGDIIRLTKGYASVFKGCLTLYTGRGGDLQKIGEFCMVYSEVPNFSEPNPEYSTQQAPNKAVQNDSNPSASQPTTGPSAASPASENQNGNGLSAPPGPGGGPHPPHTPSHPPSTRITRSQPNHTPAGPPGPSSNPVSNGKETRRSSKR
notes: also called hSSB1; source: also co-expressed (pET29a) with GST-INTS3 and C9ORF80 in E. coli Rosetta 2, in lysate
B2: Human nucleic acid-binding protein 1 (hNABP1) (natural protein, UniProt Q96AH0 1-204, looked up)
chain: MNRVNDPLIFIRDIKPGLKNLNVVFIVLEIGRVTKTKDGHEVRSCKVADKTGSITISVWDEIGGLIQPGDIIRLTRGYASMWKGCLTLYTGRGGELQKIGEFCMVYSEVPNFSEPNPDYRGQQNKGAQSEQKNNSMNSNMGTGTFGPVGNGVHTGPESREHQFSHAGRSNGRGLINPQLQGTASNQTVMTTISNGRDPRRAFKR
notes: also called hSSB2; source: also co-expressed (pET29a) with GST-INTS3 and C9ORF80 in E. coli Rosetta 2, in lysate
B3: C9ORF80, His-tagged (natural protein, human, UniProt Q9NRY2 1-104, looked up)
chain: MAANSSGQGFQNKNRVAILAELDKEKRKLLMQNQSSTNHPGASIALSRPSLNKDFRDHAEQQHIAAQQKAALQHAHAHSSGYFITQDSAFGNLILPVLPRLDPE
notes: C9ORF80, human cDNA clone; pET28a, NcoI/XhoI sites (this would give a C-terminal His tag); the printed masses fit the whole 104-residue protein; also called C9OFR80; source: peak 2); also co-expressed with GST-INTS3 and hNABP1/2 in E. coli Rosetta 2, in lysate

These binders were tested against T1, GST-tagged N-terminal region of INTS3 (GST-INTS3^N, 1-513 amino acids) (human, UniProt Q68E01 1-513) (assay: pull-down; GST-INTS3^FL, -INTS3^N or -INTS3^C incubated with hNABP1/2 or C9ORF80 at 4 C for 1 h, then glutathione-agarose beads 1 h; eluted with 10 mM glutathione; Western blot). Conditions: both partners purified.
T1 construct: Integrator complex subunit 3 (INTS3), human, N-terminal region, residues 1-513; pGEX-6P-1; source: E. coli Rosetta 2, purified (glutathione sepharose beads); not shown: GST, N-terminal, kept
T1 sequence (Q68E01 1-513): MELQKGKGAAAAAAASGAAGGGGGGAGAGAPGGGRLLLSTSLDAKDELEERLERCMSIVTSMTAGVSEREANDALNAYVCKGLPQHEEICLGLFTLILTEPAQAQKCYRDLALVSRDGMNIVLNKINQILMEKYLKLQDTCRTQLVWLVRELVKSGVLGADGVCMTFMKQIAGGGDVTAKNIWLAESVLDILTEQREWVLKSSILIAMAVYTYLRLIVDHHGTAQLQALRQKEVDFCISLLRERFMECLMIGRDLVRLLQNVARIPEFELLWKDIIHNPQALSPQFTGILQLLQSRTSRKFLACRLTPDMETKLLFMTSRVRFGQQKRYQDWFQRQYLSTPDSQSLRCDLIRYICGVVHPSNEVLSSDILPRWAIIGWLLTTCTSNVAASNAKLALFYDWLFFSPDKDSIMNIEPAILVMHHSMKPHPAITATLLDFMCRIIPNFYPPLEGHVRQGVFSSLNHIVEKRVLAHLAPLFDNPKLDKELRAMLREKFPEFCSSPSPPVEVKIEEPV

Binding result, binds:
B1, B2, B3
